Patent publication US20220098265A1 (MEDIMMUNE LIMITED, priority 2012, published 2022)
Where two headings read alike, the source gives them in different places. Values belong to the molecule of their own block, whether it stands above or below them. Numbered stars: 1 amine (or outer) side, 2 acyl side, 3 side chain; on linkers, the order of the positions; unused ones are H or OH. Side chains are listed from the residue outwards. Ends that are not written are not given here. Peptide text beside a SMILES is read from it. * marks the point of attachment. γGlu = O=C(O)[C@H](CCC(=O)[*:2])N[*:1]; Palmitoyl = CCCCCCCCCCCCCCCC(=O)*

Tests used:
Human GlucR = Human GlucR (Homo sapiens, UniProt P47871); settings: read-out: hGlucR EC50; assay 1; additional peptides (Table 4)
Sequence of Human GlucR (P47871 26-477): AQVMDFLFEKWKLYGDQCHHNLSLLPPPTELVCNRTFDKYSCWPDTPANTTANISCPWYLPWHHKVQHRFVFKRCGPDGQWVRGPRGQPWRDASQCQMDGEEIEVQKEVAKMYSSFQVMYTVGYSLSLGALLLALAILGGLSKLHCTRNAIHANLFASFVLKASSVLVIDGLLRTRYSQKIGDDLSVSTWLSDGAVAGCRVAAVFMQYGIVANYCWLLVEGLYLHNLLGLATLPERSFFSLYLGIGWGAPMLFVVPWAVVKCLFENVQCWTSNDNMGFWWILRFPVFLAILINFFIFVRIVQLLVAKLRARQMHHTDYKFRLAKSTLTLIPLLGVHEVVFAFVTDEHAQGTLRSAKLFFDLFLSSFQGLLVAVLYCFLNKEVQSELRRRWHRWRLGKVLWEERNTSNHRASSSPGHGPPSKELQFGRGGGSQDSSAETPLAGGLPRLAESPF

human GLP-1 receptor [1] = biological target: T1, human GLP-1 receptor (human, UniProt P43220 24-463); experiment: cell-based or functional assay
[2] = biological target: T2, human glucose-dependent insulinotropic peptide (gastric inhibitory polypeptide) receptor (human, UniProt P48546 22-466); experiment: cell-based or functional assay
T2 sequence (looked up): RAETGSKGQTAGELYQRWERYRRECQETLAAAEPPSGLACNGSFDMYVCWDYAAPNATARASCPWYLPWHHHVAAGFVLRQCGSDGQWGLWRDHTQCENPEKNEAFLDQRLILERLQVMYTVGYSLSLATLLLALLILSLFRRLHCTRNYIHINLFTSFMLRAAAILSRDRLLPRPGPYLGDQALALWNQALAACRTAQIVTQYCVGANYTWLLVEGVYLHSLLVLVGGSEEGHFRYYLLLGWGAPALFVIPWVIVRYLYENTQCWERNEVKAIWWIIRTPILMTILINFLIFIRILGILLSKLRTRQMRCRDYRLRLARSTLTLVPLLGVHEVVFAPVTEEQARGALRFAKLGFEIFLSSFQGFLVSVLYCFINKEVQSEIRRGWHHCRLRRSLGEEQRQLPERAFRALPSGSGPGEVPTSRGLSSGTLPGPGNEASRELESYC

human glucagon receptor [3] = biological target: T3, human glucagon receptor (human, UniProt P47871 26-477); experiment: cell-based or functional assay
T3 sequence (P47871 26-477): as the sequence (P47871 26-477) above

human GLP-1 receptor [4] = biological target: T1, human GLP-1 receptor; experiment: cell-based or functional assay; remark: listed apart in the source
[5] = biological target: T2, human glucose-dependent insulinotropic …; experiment: cell-based or functional assay; remark: listed apart in the source
human glucagon receptor [6] = biological target: T3, human glucagon receptor; experiment: cell-based or functional assay; remark: listed apart in the source
[7] = biological target: T2, human glucose-dependent insulinotropic …; experiment: cell-based or functional assay; remark: listed apart in the source
human serum albumin = human serum albumin (Homo sapiens, UniProt P02768); experiment: calculated from the variation in cAMP generation with the HSA concentration (assay 2)
Sequence of human serum albumin (P02768 25-609 limits assumed): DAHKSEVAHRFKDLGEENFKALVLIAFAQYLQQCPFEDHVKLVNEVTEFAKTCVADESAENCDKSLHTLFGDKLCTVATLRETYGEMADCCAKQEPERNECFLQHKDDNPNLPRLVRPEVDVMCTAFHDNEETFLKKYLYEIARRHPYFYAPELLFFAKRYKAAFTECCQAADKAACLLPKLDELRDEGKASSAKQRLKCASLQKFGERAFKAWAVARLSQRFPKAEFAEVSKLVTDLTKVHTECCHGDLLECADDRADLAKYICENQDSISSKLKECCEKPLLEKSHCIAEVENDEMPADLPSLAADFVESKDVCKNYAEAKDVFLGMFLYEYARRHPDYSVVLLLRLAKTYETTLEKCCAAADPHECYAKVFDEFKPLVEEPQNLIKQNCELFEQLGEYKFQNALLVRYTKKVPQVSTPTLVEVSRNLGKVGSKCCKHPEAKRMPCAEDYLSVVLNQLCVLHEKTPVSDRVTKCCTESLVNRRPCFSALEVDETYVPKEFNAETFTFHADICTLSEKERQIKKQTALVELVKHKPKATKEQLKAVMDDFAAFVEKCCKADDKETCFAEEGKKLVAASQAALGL

mouse GLP-1 receptor = biological target: T4, mouse GLP-1 receptor (mouse, UniProt O35659 22-463); experiment: cell-based or functional assay
T4 sequence (looked up): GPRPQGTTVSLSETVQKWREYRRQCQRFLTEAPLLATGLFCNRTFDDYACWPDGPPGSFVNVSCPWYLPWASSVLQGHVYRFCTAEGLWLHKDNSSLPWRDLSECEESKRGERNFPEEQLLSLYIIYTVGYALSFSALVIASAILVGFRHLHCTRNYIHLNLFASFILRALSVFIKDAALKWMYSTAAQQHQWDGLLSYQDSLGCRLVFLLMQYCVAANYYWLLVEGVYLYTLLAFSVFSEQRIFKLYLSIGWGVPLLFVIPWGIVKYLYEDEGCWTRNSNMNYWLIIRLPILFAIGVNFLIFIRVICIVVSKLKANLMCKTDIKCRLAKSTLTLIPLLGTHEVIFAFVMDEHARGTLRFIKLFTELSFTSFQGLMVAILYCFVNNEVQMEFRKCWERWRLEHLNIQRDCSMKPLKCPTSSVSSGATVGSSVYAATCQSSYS

Molecule: CC(C)C[C@H](NC(=O)[C@H](Cc1ccc(O)cc1)NC(=O)[C@H](CCCCN)NC(=O)[C@H](CO)NC(=O)[C@H](Cc1ccc(O)cc1)NC(=O)[C@H](CC(=O)O)NC(=O)[C@H](CO)NC(=O)[C@@H](NC(=O)[C@H](Cc1ccccc1)NC(=O)[C@@H](NC(=O)CNC(=O)[C@H](CCC(N)=O)NC(=O)[C@H](CO)NC(=O)[C@@H](N)Cc1c[nH]cn1)[C@@H](C)O)[C@@H](C)O)C(=O)N[C@@H](CC(=O)O)C(=O)N[C@@H](CO)C(=O)N[C@@H](CCCNC(=N)N)C(=O)N[C@@H](CCCNC(=N)N)C(=O)N[C@@H](C)C(=O)N[C@@H](CCC(N)=O)C(=O)N[C@@H](CC(=O)O)C(=O)N[C@@H](Cc1ccccc1)C(=O)N[C@H](C(=O)N[C@@H](CCC(N)=O)C(=O)N[C@@H](Cc1c[nH]c2ccccc12)C(=O)N[C@@H](CC(C)C)C(=O)N[C@H](C(=O)N[C@@H](C)C(=O)NCC(=O)NCC(=O)N1CCC[C@H]1C(=O)N[C@@H](CO)C(=O)N[C@@H](CO)C(=O)NCC(=O)N[C@@H](C)C(=O)N1CCC[C@H]1C(=O)N1CCC[C@H]1C(=O)N1CCC[C@H]1C(=O)N[C@@H](CO)C(=O)N[C@@H](CCCCN)C(N)=O)C(C)C)C(C)C [g319] (H-HSQGTFTSDYSKYLDSRRAQDFVQWLVAGGPSSGAPPPSK-NH2; N-terminus assumed)
EC50 (Human GlucR): 0.0104 nM

Molecule: HSQGTFTSDK([γGlu-Palmitoyl])SKYLEGQAAKEFIAWLEKGR-OH [G934]
cAMP EC50 (assay 1) (human GLP-1 receptor [4]): 0.018 nM
cAMP EC50 (assay 1) [5]: 3.6 nM
cAMP EC50 (assay 1) (human glucagon receptor [6]): 0.0063 nM

Molecule: HSQGTFTSDYSKK([γGlu-Palmitoyl])LDSERARDFVAWLVAGG-OH [G931]
cAMP EC50 (assay 1) (human GLP-1 receptor [4]): 0.13 nM
cAMP EC50 (assay 1) (human glucagon receptor [6]): 0.0178 nM

Molecule: HSQGTFTSDKSRYLDSRSARDFVAWLEAGG (X10 = K(gE-palm); C-terminal amide) [G849]
cAMP EC50 (assay 1) [7]: 17 nM
cAMP EC50 (assay 1) (human GLP-1 receptor [1]): 0.00907 nM
free peptide at 4.4% HSA (human serum albumin): 0.48%

Molecule: HSQGTFTSDKSSYLDSRRARDFVAWLEAGG (X10 = K(gE-palm); C-terminal amide) [G796]
cAMP EC50 (assay 2, 3.2% mouse serum albumin) (mouse GLP-1 receptor): 0.13 nM
cAMP EC50 (assay 1) [7]: 14 nM
cAMP EC50 (assay 1) (human GLP-1 receptor [1]): 0.014 nM

Molecule: HSQGTFTSDKSKYLEGQAAKEFIAWLEKGR (X10 = K(gE-palm); C-terminal amide) [G812]
cAMP EC50 (assay 2, 3.2% mouse serum albumin) (mouse GLP-1 receptor): 0.13 nM

The remaining lines, values ahead:

EC50 (Human GlucR): 0.92 nM
Molecule: CCCCCCCCCCCCCCCC(=O)N[C@@H](CCC(=O)NCCCC[C@H](NC(=O)[C@H](CO)NC(=O)[C@H](CC(=O)O)NC(=O)[C@H](CC(C)C)NC(=O)[C@H](Cc1ccc(O)cc1)NC(=O)[C@H](CCCCN)NC(=O)[C@H](CO)NC(=O)[C@H](Cc1ccc(O)cc1)NC(=O)[C@H](CC(=O)O)NC(=O)[C@H](CO)NC(=O)[C@@H](NC(=O)[C@H](Cc1ccccc1)NC(=O)[C@@H](NC(=O)CNC(=O)[C@H](CCC(N)=O)NC(=O)CNC(=O)[C@@H](N)Cc1c[nH]cn1)[C@@H](C)O)[C@@H](C)O)C(=O)N[C@@H](CCCNC(=N)N)C(=O)N[C@@H](C)C(=O)N[C@@H](C)C(=O)N[C@@H](CC(=O)O)C(=O)N[C@@H](Cc1ccccc1)C(=O)N[C@H](C(=O)N[C@@H](C)C(=O)N[C@@H](Cc1c[nH]c2ccccc12)C(=O)N[C@@H](CC(C)C)C(=O)N[C@H](C(=O)N[C@@H](C)C(=O)NCC(=O)NCC(N)=O)C(C)C)C(C)C)C(=O)O [g736] (H-HGQGTFTSDYSKYLDSK([γGlu-Palmitoyl])RAADFVAWLVAGG-NH2; N-terminus assumed)

cAMP EC50 (assay 1) (human GLP-1 receptor [1]): 0.0193 nM
cAMP EC50 (assay 1) [2]: 12.8 nM
cAMP EC50 (assay 1) (human glucagon receptor [3]): 0.00232 nM
B1: g327 (peptide)
peptide: HSQGTFTSDYSKYLDSRRAQDFVQWLVAGGGGGGK([γGlu-Palmitoyl])-NH2
modifications: N-terminus assumed
SMILES: CCCCCCCCCCCCCCCC(=O)N[C@@H](CCC(=O)NCCCC[C@H](NC(=O)CNC(=O)CNC(=O)CNC(=O)CNC(=O)CNC(=O)CNC(=O)[C@H](C)NC(=O)[C@@H](NC(=O)[C@H](CC(C)C)NC(=O)[C@H](Cc1c[nH]c2ccccc12)NC(=O)[C@H](CCC(N)=O)NC(=O)[C@@H](NC(=O)[C@H](Cc1ccccc1)NC(=O)[C@H](CC(=O)O)NC(=O)[C@H](CCC(N)=O)NC(=O)[C@H](C)NC(=O)[C@H](CCCNC(=N)N)NC(=O)[C@H](CCCNC(=N)N)NC(=O)[C@H](CO)NC(=O)[C@H](CC(=O)O)NC(=O)[C@H](CC(C)C)NC(=O)[C@H](Cc1ccc(O)cc1)NC(=O)[C@H](CCCCN)NC(=O)[C@H](CO)NC(=O)[C@H](Cc1ccc(O)cc1)NC(=O)[C@H](CC(=O)O)NC(=O)[C@H](CO)NC(=O)[C@@H](NC(=O)[C@H](Cc1ccccc1)NC(=O)[C@@H](NC(=O)CNC(=O)[C@H](CCC(N)=O)NC(=O)[C@H](CO)NC(=O)[C@@H](N)Cc1c[nH]cn1)[C@@H](C)O)[C@@H](C)O)C(C)C)C(C)C)C(N)=O)C(=O)O

cAMP EC50 (assay 1) (human GLP-1 receptor [1]): 0.0272 nM
cAMP EC50 (assay 1) [2]: 6.41 nM
cAMP EC50 (assay 1) (human glucagon receptor [3]): 0.0279 nM
Molecule: HSQGTFTSDYSKYLDSRRAQDFVQWLVAGGKNNRNNIAK-NH2 [g321]

cAMP EC50 (assay 1) (human GLP-1 receptor [4]): 0.012 nM
cAMP EC50 (assay 1) [5]: 47 nM
cAMP EC50 (assay 1) (human glucagon receptor [6]): 0.0089 nM
Molecule: HSQGTFTSDXSSYLDSRSARDFVAWLEAGG (X10 = K(gE-palm); C-terminal acid) [G973]

cAMP EC50 (assay 1) (human GLP-1 receptor [1]): 0.0106 nM
cAMP EC50 (assay 1) [2]: 1.72 nM
cAMP EC50 (assay 1) (human glucagon receptor [3]): 0.00355 nM
B2: g322 (peptide)
peptide: HSQGTFTSDYSKYLDSRRAQDFVQWLVAGGKNNRNNIAK(Palmitoyl)-NH2
modifications: N-terminus assumed
SMILES: CCCCCCCCCCCCCCCC(=O)NCCCC[C@H](NC(=O)[C@H](C)NC(=O)[C@@H](NC(=O)[C@H](CC(N)=O)NC(=O)[C@H](CC(N)=O)NC(=O)[C@H](CCCNC(=N)N)NC(=O)[C@H](CC(N)=O)NC(=O)[C@H](CC(N)=O)NC(=O)[C@H](CCCCN)NC(=O)CNC(=O)CNC(=O)[C@H](C)NC(=O)[C@@H](NC(=O)[C@H](CC(C)C)NC(=O)[C@H](Cc1c[nH]c2ccccc12)NC(=O)[C@H](CCC(N)=O)NC(=O)[C@@H](NC(=O)[C@H](Cc1ccccc1)NC(=O)[C@H](CC(=O)O)NC(=O)[C@H](CCC(N)=O)NC(=O)[C@H](C)NC(=O)[C@H](CCCNC(=N)N)NC(=O)[C@H](CCCNC(=N)N)NC(=O)[C@H](CO)NC(=O)[C@H](CC(=O)O)NC(=O)[C@H](CC(C)C)NC(=O)[C@H](Cc1ccc(O)cc1)NC(=O)[C@H](CCCCN)NC(=O)[C@H](CO)NC(=O)[C@H](Cc1ccc(O)cc1)NC(=O)[C@H](CC(=O)O)NC(=O)[C@H](CO)NC(=O)[C@@H](NC(=O)[C@H](Cc1ccccc1)NC(=O)[C@@H](NC(=O)CNC(=O)[C@H](CCC(N)=O)NC(=O)[C@H](CO)NC(=O)[C@@H](N)Cc1c[nH]cn1)[C@@H](C)O)[C@@H](C)O)C(C)C)C(C)C)[C@@H](C)CC)C(N)=O
